pKd: −log10 of the molar value.

Data set [1] has as its system DNA polymerase beta (Pol β) WT (human). The data set is described as follows: EMSA. The following applies: EMSA: 50 nM substrate, 50 mM Hepes pH 7.5, 37 mM KCl, 5 mM MgCl2, 0.5 mM EDTA, 100 ug/ml BSA, on ice 10 min, gel at 4 C, FA: 50 mM Hepes pH 7.5, 20 mM KCl, 2 mM. On the technique in general: A gel shift assay detects complexes by their altered migration in electrophoresis.

Data set [2] deals with Pol β V303C, 5-iodoacetamidofluorescein labeled. Description: fluorescence anisotropy. The following applies: 5'-phosphorylated tetrahydrofuran at 5' end of nick; biotin at 5' ends; EMSA: 50 nM substrate, 50 mM Hepes pH 7.5, 37 mM KCl, 5 mM MgCl2, 0.5 mM EDTA, 100 ug/ml BSA, on ice 10 min, gel at 4 C; FA: 50 mM Hepes pH 7.5, 20 mM KCl, 2 mM.
Setting [3] is: 5'-phosphorylated tetrahydrofuran at 5' end of nick.

Turning to DNA-5'-P-THF-O (-35), in data set [1] (setting [3]), the pKd was 7.70. As for DNA-gI (-49), the negative logarithm of the Kd (pKd) in data set [1] (5'-phosphate and 3'-OH at gap) was 7.52. Still for that read-out and setting: as for DNA-gO (-35), the figure is 7.70. Turning to NCP-5'-P-THF-O (-35), the pKd in data set [1] (setting [3]) was 6.44. In data set [2], NCP-5'-P-THF-O (-35), 5'-biotin had a pKd of 6.55. NCP-gI (-49) showed a pKd in data set [1] (5'-phosphate and 3'-OH at gap) of 6.77. On the same count and under the same terms, as for NCP-gO (-35), the figure is 6.34. In data set [1], UND NCP gave a negative logarithm of the Kd (pKd) of 6.13. In the case of UND-DNA, the pKd in data set [1] was 7.30.

As a reminder, the pKd is the negative decadic logarithm of the Kd, by convention in mol/L.
